Results on 19 molecules are retold here after US20070078092A1 (CUREGENICS, published 2007).

Numbered stars: 1 amine (or outer) side, 2 acyl side, 3 side chain; on linkers, the order of the positions; unused ones are H or OH. Square brackets hold non-standard residues; d marks the D form. * marks the point of attachment. Cholesteryloxycarbonyl = CC(C)CCC[C@@H](C)[C@H]1CC[C@H]2[C@@H]3CC=C4C[C@@H](OC(=O)*)CC[C@]4(C)[C@H]3CC[C@]12C; Ser(Me) = COC[C@H](N[*:1])C(=O)[*:2]; hLeu = CC(C)CC[C@H](N)C(=O)O; Orn = NCCC[C@H](N)C(=O)O; Nva = CCC[C@H](N)C(=O)O; Dap = NC[C@H](N)C(=O)O

B1: PTR 6348 (peptide)
peptide: Cholesteryloxycarbonyl-[dK][dK][dK]RPR[Nva]Y[Ser(Me)][hLeu]-NH2
SMILES: CCC[C@H](NC(=O)[C@H](CCCNC(=N)N)NC(=O)[C@@H]1CCCN1C(=O)[C@H](CCCNC(=N)N)NC(=O)[C@@H](CCCCN)NC(=O)[C@@H](CCCCN)NC(=O)[C@@H](CCCCN)NC(=O)O[C@H]1CC[C@@]2(C)C(=CC[C@H]3[C@@H]4CC[C@H]([C@H](C)CCCC(C)C)[C@@]4(C)CC[C@@H]32)C1)C(=O)N[C@@H](Cc1ccc(O)cc1)C(=O)N[C@@H](COC)C(=O)N[C@@H](CCC(C)C)C(N)=O
B2: PTR 6324 (peptide)
peptide: Cholesteryloxycarbonyl-[dK][dK][dK][dK][dK]RPR[Nva]Y[Dap][hLeu]-NH2
SMILES: CCC[C@H](NC(=O)[C@H](CCCNC(=N)N)NC(=O)[C@@H]1CCCN1C(=O)[C@H](CCCNC(=N)N)NC(=O)[C@@H](CCCCN)NC(=O)[C@@H](CCCCN)NC(=O)[C@@H](CCCCN)NC(=O)[C@@H](CCCCN)NC(=O)[C@@H](CCCCN)NC(=O)O[C@H]1CC[C@@]2(C)C(=CC[C@H]3[C@@H]4CC[C@H]([C@H](C)CCCC(C)C)[C@@]4(C)CC[C@@H]32)C1)C(=O)N[C@@H](Cc1ccc(O)cc1)C(=O)N[C@@H](CN)C(=O)N[C@@H](CCC(C)C)C(N)=O
B3: PTR 6368 (peptide)
peptide: H-RPH[Nva]Y[Dap][hLeu]-NH2
SMILES: CCC[C@H](NC(=O)[C@H](Cc1c[nH]cn1)NC(=O)[C@@H]1CCCN1C(=O)[C@@H](N)CCCNC(=N)N)C(=O)N[C@@H](Cc1ccc(O)cc1)C(=O)N[C@@H](CN)C(=O)N[C@@H](CCC(C)C)C(N)=O
B4: PTR 6346 (peptide)
peptide: Cholesteryloxycarbonyl-RPR[Nva]Y[Dap][hLeu][dK][dK][dK]-NH2
SMILES: CCC[C@H](NC(=O)[C@H](CCCNC(=N)N)NC(=O)[C@@H]1CCCN1C(=O)[C@H](CCCNC(=N)N)NC(=O)O[C@H]1CC[C@@]2(C)C(=CC[C@H]3[C@@H]4CC[C@H]([C@H](C)CCCC(C)C)[C@@]4(C)CC[C@@H]32)C1)C(=O)N[C@@H](Cc1ccc(O)cc1)C(=O)N[C@@H](CN)C(=O)N[C@@H](CCC(C)C)C(=O)N[C@H](CCCCN)C(=O)N[C@H](CCCCN)C(=O)N[C@H](CCCCN)C(N)=O
B5: PTR 6372 (peptide)
peptide: H-RP[Orn][Nva]Y[Dap][hLeu]-NH2
SMILES: CCC[C@H](NC(=O)[C@H](CCCN)NC(=O)[C@@H]1CCCN1C(=O)[C@@H](N)CCCNC(=N)N)C(=O)N[C@@H](Cc1ccc(O)cc1)C(=O)N[C@@H](CN)C(=O)N[C@@H](CCC(C)C)C(N)=O
B6: PTR 6338 (peptide)
peptide: Cholesteryloxycarbonyl-[dK][dK][dK][dK][dK][dK]RPR[Nva]Y[Ser(Me)][hLeu]-NH2
SMILES: CCC[C@H](NC(=O)[C@H](CCCNC(=N)N)NC(=O)[C@@H]1CCCN1C(=O)[C@H](CCCNC(=N)N)NC(=O)[C@@H](CCCCN)NC(=O)[C@@H](CCCCN)NC(=O)[C@@H](CCCCN)NC(=O)[C@@H](CCCCN)NC(=O)[C@@H](CCCCN)NC(=O)[C@@H](CCCCN)NC(=O)O[C@H]1CC[C@@]2(C)C(=CC[C@H]3[C@@H]4CC[C@H]([C@H](C)CCCC(C)C)[C@@]4(C)CC[C@@H]32)C1)C(=O)N[C@@H](Cc1ccc(O)cc1)C(=O)N[C@@H](COC)C(=O)N[C@@H](CCC(C)C)C(N)=O
B7: PTR 6330 (peptide)
peptide: Cholesteryloxycarbonyl-GGGRPR[Nva]Y[Dap][hLeu]-NH2
SMILES: CCC[C@H](NC(=O)[C@H](CCCNC(=N)N)NC(=O)[C@@H]1CCCN1C(=O)[C@H](CCCNC(=N)N)NC(=O)CNC(=O)CNC(=O)CNC(=O)O[C@H]1CC[C@@]2(C)C(=CC[C@H]3[C@@H]4CC[C@H]([C@H](C)CCCC(C)C)[C@@]4(C)CC[C@@H]32)C1)C(=O)N[C@@H](Cc1ccc(O)cc1)C(=O)N[C@@H](CN)C(=O)N[C@@H](CCC(C)C)C(N)=O
B8: PTR 6328 (peptide)
peptide: Cholesteryloxycarbonyl-GGRPR[Nva]Y[Dap][hLeu]-NH2
SMILES: CCC[C@H](NC(=O)[C@H](CCCNC(=N)N)NC(=O)[C@@H]1CCCN1C(=O)[C@H](CCCNC(=N)N)NC(=O)CNC(=O)CNC(=O)O[C@H]1CC[C@@]2(C)C(=CC[C@H]3[C@@H]4CC[C@H]([C@H](C)CCCC(C)C)[C@@]4(C)CC[C@@H]32)C1)C(=O)N[C@@H](Cc1ccc(O)cc1)C(=O)N[C@@H](CN)C(=O)N[C@@H](CCC(C)C)C(N)=O
B9: PTR 6326 (peptide)
peptide: Cholesteryloxycarbonyl-[dK][dK][dK][dK][dK][dK]RPR[Nva]Y[Dap][hLeu]-NH2
SMILES: CCC[C@H](NC(=O)[C@H](CCCNC(=N)N)NC(=O)[C@@H]1CCCN1C(=O)[C@H](CCCNC(=N)N)NC(=O)[C@@H](CCCCN)NC(=O)[C@@H](CCCCN)NC(=O)[C@@H](CCCCN)NC(=O)[C@@H](CCCCN)NC(=O)[C@@H](CCCCN)NC(=O)[C@@H](CCCCN)NC(=O)O[C@H]1CC[C@@]2(C)C(=CC[C@H]3[C@@H]4CC[C@H]([C@H](C)CCCC(C)C)[C@@]4(C)CC[C@@H]32)C1)C(=O)N[C@@H](Cc1ccc(O)cc1)C(=O)N[C@@H](CN)C(=O)N[C@@H](CCC(C)C)C(N)=O
B10: PTR 6352 (peptide)
peptide: Cholesteryloxycarbonyl-KKKRPR[Nva]Y[Dap][hLeu]-OH
SMILES: CCC[C@H](NC(=O)[C@H](CCCNC(=N)N)NC(=O)[C@@H]1CCCN1C(=O)[C@H](CCCNC(=N)N)NC(=O)[C@H](CCCCN)NC(=O)[C@H](CCCCN)NC(=O)[C@H](CCCCN)NC(=O)O[C@H]1CC[C@@]2(C)C(=CC[C@H]3[C@@H]4CC[C@H]([C@H](C)CCCC(C)C)[C@@]4(C)CC[C@@H]32)C1)C(=O)N[C@@H](Cc1ccc(O)cc1)C(=O)N[C@@H](CN)C(=O)N[C@@H](CCC(C)C)C(=O)O
B11: PTR 6334 (peptide)
peptide: Cholesteryloxycarbonyl-GGGGGRPR[Nva]Y[Dap][hLeu]-NH2
SMILES: CCC[C@H](NC(=O)[C@H](CCCNC(=N)N)NC(=O)[C@@H]1CCCN1C(=O)[C@H](CCCNC(=N)N)NC(=O)CNC(=O)CNC(=O)CNC(=O)CNC(=O)CNC(=O)O[C@H]1CC[C@@]2(C)C(=CC[C@H]3[C@@H]4CC[C@H]([C@H](C)CCCC(C)C)[C@@]4(C)CC[C@@H]32)C1)C(=O)N[C@@H](Cc1ccc(O)cc1)C(=O)N[C@@H](CN)C(=O)N[C@@H](CCC(C)C)C(N)=O
B12: PTR 6336 (peptide)
peptide: Cholesteryloxycarbonyl-GGGGGGRPR[Nva]Y[Dap][hLeu]-NH2
SMILES: CCC[C@H](NC(=O)[C@H](CCCNC(=N)N)NC(=O)[C@@H]1CCCN1C(=O)[C@H](CCCNC(=N)N)NC(=O)CNC(=O)CNC(=O)CNC(=O)CNC(=O)CNC(=O)CNC(=O)O[C@H]1CC[C@@]2(C)C(=CC[C@H]3[C@@H]4CC[C@H]([C@H](C)CCCC(C)C)[C@@]4(C)CC[C@@H]32)C1)C(=O)N[C@@H](Cc1ccc(O)cc1)C(=O)N[C@@H](CN)C(=O)N[C@@H](CCC(C)C)C(N)=O
B13: PTR 6332 (peptide)
peptide: Cholesteryloxycarbonyl-GGGGRPR[Nva]Y[Dap][hLeu]-NH2
SMILES: CCC[C@H](NC(=O)[C@H](CCCNC(=N)N)NC(=O)[C@@H]1CCCN1C(=O)[C@H](CCCNC(=N)N)NC(=O)CNC(=O)CNC(=O)CNC(=O)CNC(=O)O[C@H]1CC[C@@]2(C)C(=CC[C@H]3[C@@H]4CC[C@H]([C@H](C)CCCC(C)C)[C@@]4(C)CC[C@@H]32)C1)C(=O)N[C@@H](Cc1ccc(O)cc1)C(=O)N[C@@H](CN)C(=O)N[C@@H](CCC(C)C)C(N)=O
B14: PTR 6344 (peptide)
peptide: Cholesteryloxycarbonyl-KKKRPR[Nva]Y[Dap][hLeu]-NH2
SMILES: CCC[C@H](NC(=O)[C@H](CCCNC(=N)N)NC(=O)[C@@H]1CCCN1C(=O)[C@H](CCCNC(=N)N)NC(=O)[C@H](CCCCN)NC(=O)[C@H](CCCCN)NC(=O)[C@H](CCCCN)NC(=O)O[C@H]1CC[C@@]2(C)C(=CC[C@H]3[C@@H]4CC[C@H]([C@H](C)CCCC(C)C)[C@@]4(C)CC[C@@H]32)C1)C(=O)N[C@@H](Cc1ccc(O)cc1)C(=O)N[C@@H](CN)C(=O)N[C@@H](CCC(C)C)C(N)=O
B15: PTR 6376 (peptide)
peptide: Cholesteryloxycarbonyl-RPH[Nva]Y[Dap][hLeu]-NH2
SMILES: CCC[C@H](NC(=O)[C@H](Cc1c[nH]cn1)NC(=O)[C@@H]1CCCN1C(=O)[C@H](CCCNC(=N)N)NC(=O)O[C@H]1CC[C@@]2(C)C(=CC[C@H]3[C@@H]4CC[C@H]([C@H](C)CCCC(C)C)[C@@]4(C)CC[C@@H]32)C1)C(=O)N[C@@H](Cc1ccc(O)cc1)C(=O)N[C@@H](CN)C(=O)N[C@@H](CCC(C)C)C(N)=O

This assay has as its target protein kinase B (PKB). In words: cell-based or functional assay.
As for B1, the “IC50, in vitro kinase assay PKB” value turned out to be 0.2 µM.
As to B2, the “IC50, in vitro kinase assay PKB” value stood at 0.1 µM.
As for B3, the “IC50, in vitro kinase assay PKB” value was above 10 µM.
Take B4: the “IC50, in vitro kinase assay PKB” value came out at 0.2 µM.
For {Cholesteryl‑O‑CO‑(CH2)2‑CO}-[dK][dK][dK]RPR[Nva]Y[Dap][hLeu]-NH2 [PTR 6356], the “IC50, in vitro kinase assay PKB” value came out at 0.17 µM.
Consider B5, for which the “IC50, in vitro kinase assay PKB” value is above 10 µM.
Regarding B6, the “IC50, in vitro kinase assay PKB” value is 0.1 µM.
The same measure for XPRXYXX (Nva, Dap, Hol; C-terminal NH2) [PTR 6366]: above 10 µM; for B7: 1 µM.
The same measure for XPRXYXX (N-terminal Cholesteryl-O-CO-; Nva, Dap, Hol; C-terminal NH2) [PTR 6374]: 1.4 µM; for B8: 1 µM.
On to B9, for which the “IC50, in vitro kinase assay PKB” value was found to be 0.1 µM.
Turning to B10, the “IC50, in vitro kinase assay PKB” value was 0.2 µM.
B11: the “IC50, in vitro kinase assay PKB” value turned out to be 1 µM.
Turning to B12, the “IC50, in vitro kinase assay PKB” value was 1 µM.
Take B13: the “IC50, in vitro kinase assay PKB” value was determined as 1 µM.
With XPHXYXX (Nva, Dap, Hol; C-terminal NH2) [PTR 6370] the figure was above 10 µM; with B14, 0.3 µM; with B15, 2 µM.
